Source: paper PMC12714832

Molecular target: proton-dissociation-permeated sodium channel (PDPNaC1) (Scolopendra subspinipes mutilans)
Assay: cryo-EM structure; purified PDPNaC1 in LMNG/CHS, pH 8.0, 4.0 mg/mL; 121,831 particles, C3 symmetry, 3.03 Å; closed (non-conductive) state

stoichiometry N: 3
Substance: proton-dissociation-permeated sodium channel (PDPNaC1) (natural protein)
